Here are results for three molecules from paper PMC8550178, “Enzymatically synthesized exopolysaccharide of a probiotic strain Leuconostoc mesenteroides NTM048 shows adjuvant activity to promote IgA antibody responses” (Gut Microbes, 2021).

By Km is commonly meant the concentration of substrate that gives half-maximal velocity. As usually defined, the kcat/Km is the turnover number divided by the Michaelis constant.

Experiment in all cases: fructose release, DNS method
Common to all, as to settings: 20 mM sodium acetate pH 5.5, 1 mM CaCl2, 28°C, 5-200 mM sucrose

One data set deals with T1, Gtf2.
T1 construct: signal peptide removed, C-terminal His6 (pET23b), E. coli BL21(DE3); full-length precursor 1479 residues; draft genome BOPR01000001
The format is biochemical, Leuconostoc mesenteroides subsp. mesenteroides. The text has this:
fructose release, DNS method on Gtf2

Substrate in data set [1]: OC[C@H]1O[C@@](CO)(O[C@H]2O[C@H](CO)[C@@H](O)[C@H](O)[C@H]2O)[C@@H](O)[C@@H]1O
The data set is classed as biochemical, Leuconostoc mesenteroides. The source says:
fructose release, DNS method on LEUM1752

Substrate in data set [2]: OC[C@H]1O[C@@](CO)(O[C@H]2O[C@H](CO)[C@@H](O)[C@H](O)[C@H]2O)[C@@H](O)[C@@H]1O
The data set is classed as biochemical, Leuconostoc mesenteroides. The text has this: fructose release, DNS method on LEUM1747
This is another data set of the same source.

As for `OC[C@H]1O[C@@](CO)(O[C@H]2O[C@H](CO)[C@@H](O)[C@H](O)[C@H]2O)[C@@H](O)[C@@H]1O` [sucrose], in the data set with Gtf2, the Michaelis-Menten constant (Km) turned out to be 23 mM.

B1: LEUM1752 (Leuconostoc mesenteroides subsp. mesenteroides ATCC 8293) (protein)
chain: DVSQNNGVVVATAVDQSNLDATTSDKSITTDDKAATTAATSTDDKATTTVATSTDDKDTTTAATSTDDKATTTVATSTDDKATTTAATSTDDKAATTAATSTDDKAATTAATSTDDKAATTADTSTDDKAATTAATSTDDKATTTAATSTDDKTATTVGTSDNNNSATASDKDVSSSAQKSQTIDNNSKTADTTAALEASSKNLKTIDGKTYYYDDDDQVKKNFATVIDGKVLYFDKETGALADTNDYQFLEGLTSENNTYTEHNASVGTSSDSYTNVDGYLTADSWYRPKDILVNGQNWESSKDDDLRPLLMTWWPDKATQVNYLNAMKYLDATETETVYTSDDSQDALNKAAQNIQVKIEEKISQEGQTQWLKDDISKFVDSQSNWNIASESKGTDHLQGGALLYVNSDKTPDANSDYRLLNRTPTNQTGTPLYTTDPTQGGYDFLLANDVDNSNPVVQAEQLNWMYYLLNFGSITNNDADANFDSIRVDAVDNVDADLLQIAADYFKAAYGVDKSDAISNQHVSILEDWSDNDAEYVKDNGDNQLSMDNKLRLSLKYSLTMPAVDQYGNKRSGLEPFLTNSLVDRTNDSTDNTAQPNYSFVRAHDSEVQTVIAEIIKQRIDPDSDGLSPTMDQLTEAFKIYNADQLKTDKEFTQYNIPSTYATILTNKDTVPRVYYGDMYTDDGQYMATKSLYYDAIDTLLKSRIKYVSGGQTMSMKYMQGDSSMAADSYRGILTSVRYGNGAMTATDAGTNETRTQGIAVIESNNPDLKLSSTDQVVVDMGIAHKNQAYRPALLTTKDGIDTYVSDSDVSQSLIRYTNSNGQLIFNSSDIVGTANPQVSGYLAVWVPVGASDTQDARTESSTATTADGQTLHSNAALDSQVIYESFSNFQSTPTTEAEYANVQIANNTDLYKSWGITNFEFPPQYRSSTDSSFLDSIIQNGYAFTDRYDLGFNTPTKYGTVDQLRTAIKALHATGIKAMADWVPDQIYNLTGKEVVAVQRVNNSGIYNQDSVINKTLYASQTVGGGEYQALYGGEFLDEIKKLYPSLFEKNQISTGVPMDASEKIKEWSAKYFNGTNIQGRGAYYVLKDWATNEYFKVSTSSNSSVFLPKQLTNEESNTGFISTDGGMTYYSTSGYQAKDTFIQDDKSNWYYFDKNGYMTYGFQTVNDNNYYFLPNGIELQDAILEDSKGNVYYFNQYGKQAVDGYYMLANKTWRYFDKNGVMANAGLTTVTVDGQEHIQYFDKNGIQVKGTSVKDADGKLRYFDTDSGDMVTNRFGENTDGTWSYFGADGIAVTGAQTISGQKLFFDADGQQIKGKEATDKKGKVHYYDANSGEMITNRFEKLSDGSWAYFNKKGNIVTGAQVINGQHLFFESNGNQVKGREYTATDGKMRYYDADSGDMVTNRFERISDGSWAYFGANGVAVTGEQNINGQQLYFDANGHQVKGAAVTQADGSQKYYDANSGEMIKS
notes: signal peptide removed, C-terminal His6 (pET23b), E. coli BL21(DE3)
For the molecule B1, in data set [1], the Km is given as 1.9 × 10^1 ± 0.1 mM and the kcat/Km came to 1300 M⁻¹ s⁻¹.

B2: LEUM1747 (Leuconostoc mesenteroides subsp. mesenteroides ATCC 8293) (protein)
chain: TPSVLGDSSVPDVSANNVQSASDNTTDTQQNTTVTEENDKVQSAATNDNVTTAASDTTQSADNNVTEKQSDDHALDNEKVDNKQDEVAQTNVTSKDEESAVASTDTDPAETTTDETQQVSGKYVEKDGSWYYYFDDGKNAKGLSTIDNNIQYFDESGKQVKGQYVTIDNQTYYFDKDSGDELTGLQSIDGNIVAFNDEGQQIFNQYYQSENGTTYYFDDKGHAATGIKNIEGKNYYFDNLGQLKKGFSGVIDGQIMTFDQETGQEVSNTTSEIKEGLTTQNTDYSEHNAAHGTDAEDFENIDGYLTASSWYRPTDILRNGTDWEPSTDTDFRPILSVWWPDKNTQVNYLNYMADLGFISNADSFETGDSQSLLNEASNYVQKSIEMKISAQQSTEWLKDAMAAFIVTQPQWNETSEDMSNDHLQNGALTYVNSPLTPDANSNFRLLNRTPTNQTGEQAYNLDNSKGGFELLLANDVDNSNPVVQAEQLNWLYYLMNFGTITANDADANFDGIRVDAVDNVDADLLQIAADYFKLAYGVDQNDATANQHLSILEDWSHNDPLYVTDQGSNQLTMDDYVHTQLIWSLTKSSDIRGTMQRFVDYYMVDRSNDSTENEAIPNYSFVRAHDSEVQTVIAQIVSDLYPDVENSLAPTTEQLAAAFKVYNEDEKLADKKYTQYNMASAYAMLLTNKDTVPRVYYGDLYTDDGQYMATKSPYYDAINTLLKARVQYVAGGQSMSVDSNDVLTSVRYGKDAMTASDTGTSETRTEGVGVIVSNNAELQLEDGHTVTLHMGAAHKNQAYRALLSTTADGLAYYDTDENAPVAYTDANGDLIFTNESIYGVQNPQVSGYLAVWVPVGAQQDQDARTASDTTTNTSDKVFHSNAALDSQVIYEGFSNFQAFATDSSEYTNVVIAQNADQFKQWGVTSFQLAPQYRSSTDTSFLDSIIQNGYAFTDRYDLGYGTPTKYGTADQLRDAIKALHASGIQAIADWVPDQIYNLPEQELATVTRTNSFGDDDTDSDIDNALYVVQSRGGGQYQEMYGGAFLEELQALYPSLFKVNQISTGVPIDGSVKITEWAAKYFNGSNIQGKGAGYVLKDMGSNKYFKVVSNTEDGDYLPKQLTNDLSETGFTHDDKGIIYYTLSGYRAQNAFIQDDDNNYYYFDKTGHLVTGLQKINNHTYFFLPNGIELVKSFLQNEDGTIVYFDKKGHQVFDQYITDQNGNAYYFDDAGVMLKSGLATIDGHQQYFDQNGVQVKDKFVIGTDGYKYYFEPGSGNLAILRYVQNSKNQWFYFDGNGHAVTGFQTINGKKQYFYNDGHQSKGEFIDADGDTFYTSATDGRLVTGVQKINGITYAFDNTGNLITNQYYQLADGKYMLLDDSGRAKTGFVLQDGVLRYFDQNGEQVKDAIIVDPDTNLSYYFNATQGVAVKNDYFEYQGNWYLTDANYQLIKGFKAVDDSLQHFDEVTGVQTKDSALISAQGKVYQFDNNGNAVSA
notes: as for B1
Take B2: in data set [2], the Km is 2.5 × 10^1 ± 0.2 mM and the catalytic efficiency (kcat/Km) is 1400 M⁻¹ s⁻¹.
